The values that follow come from patent CN102827282A (LIN HONG, dated 2012).

This test has as its target T1, 重组人Trop-2蛋白 (human, UniProt P09758 27-274, limits assumed).
T1 construct: Purified recombinant protein coated on ELISA plates; also called recombinant human Trop-2 protein; 重组的Trop-2蛋白
T1 sequence (looked up): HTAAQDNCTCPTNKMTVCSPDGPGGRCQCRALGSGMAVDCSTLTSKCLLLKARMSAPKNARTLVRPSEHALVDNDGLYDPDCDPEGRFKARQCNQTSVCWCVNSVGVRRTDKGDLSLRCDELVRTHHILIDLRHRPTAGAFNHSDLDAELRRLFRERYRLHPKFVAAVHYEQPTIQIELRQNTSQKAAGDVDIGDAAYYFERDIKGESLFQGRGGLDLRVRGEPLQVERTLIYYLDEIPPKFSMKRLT
In words: phage ELISA of single clones after five rounds of panning on recombinant human Trop-2.

B1: 抗Trop-2的特异性人源Fab抗体 (Fab, V domains shown)
VH: QVQLVESGGGVVQPGRSLRLSCAASGFTFSSYGMHWVRQAPGKGLEWVAVIWYDGSNKYYADSVKGRFTISRDNSKNTLYLQMNSLRAEDTAVYYCARDPGWGFDYWGQGTLVTVSS
VL: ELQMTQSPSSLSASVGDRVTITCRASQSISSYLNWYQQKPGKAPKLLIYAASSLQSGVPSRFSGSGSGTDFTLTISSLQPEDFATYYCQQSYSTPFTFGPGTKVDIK
notes: also called 抗Trop-2抗体Fab; pComb3x-Fab
B1: the binding result is listed as “binds”.
